Laboratory results reported in US20160145343A1 (UNIVERSITY OF PITTSBURGH OF THE COMMONWEALTH SYSTEM OF …, published 2016).
Where no end group is shown, it is not given here. The star is where a group is joined. αGalNAc = CC(=O)N[C@@H]1[C@@H](O)[C@@H](O)[C@@H](CO)O[C@@H]1*; Galβ1‑3GalNAc = TF-antigen

What was measured:
[1] = target: T1, Synthetic peptide HGVTSAPDTRPAPGSTAPP; assay: ELISA on coated peptide, antibody 0.01 mg/ml, mean of 3
T1 construct: Unglycosylated; also called 346; MUC1 repeat
T1 peptide: HGVTSAPDTRPAPGSTAPP
Source text: (§1) Selected antibodies from Table 1 were further characterized for binding to synthetic MUC1 glycopeptides that were synthesized with the GalNac or GaNac-Gal carbohydrates on various serines and threonines along the MUC1 tandem repeat. If placed within the specific epitope recognized by an antibody, the antibody would not bind that particular glycopeptide.

[2] = target: T2, Synthetic peptide (GVTSAPDTRPAPGSTAPPAH)2; assay: as above
T2 peptide: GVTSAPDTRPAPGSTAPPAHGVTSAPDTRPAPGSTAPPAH
Source text: as §1

[3] = target: T3, SEQ ID NO: 346 glycopeptide with TF-antigen at Thr4; assay: ELISA on coated glycopeptide, antibody 0.01 mg/ml, mean of 3
T3 construct: also called T4^TF
T3 peptide: HGVT(Galβ1‑3GalNAc)SAPDTRPAPGSTAPP
Source text: as §1

[4] = target: T4, SEQ ID NO: 346 glycopeptide with TF-antigen at Thr9; assay: as above
T4 construct: also called T9^TF
T4 peptide: HGVTSAPDT(Galβ1‑3GalNAc)RPAPGSTAPP
Source text: as §1

[5] = target: T5, SEQ ID NO: 346 glycopeptide with TF-antigen at Thr4 and Thr9; assay: as above
T5 construct: also called T4^TF/T9^TF
T5 peptide: HGVT(Galβ1‑3GalNAc)SAPDT(Galβ1‑3GalNAc)RPAPGSTAPP
Source text: as §1

[6] = target: T6, SEQ ID NO: 346 glycopeptide with Tn-antigen at Thr4, Thr9 and Thr16; assay: as above
T6 construct: also called T4^Tn/T9^Tn/T16^Tn
T6 peptide: HGVT(αGalNAc)SAPDT(αGalNAc)RPAPGST(αGalNAc)APP
Source text: as §1

[7] = target: T7, SEQ ID NO: 346 glycopeptide with TF-antigen at Thr16; assay: as above
T7 construct: also called T16^TF
T7 peptide: HGVTSAPDTRPAPGST(Galβ1‑3GalNAc)APP
Source text: as §1

[8] = target: T8, SEQ ID NO: 346 glycopeptide with TF-antigen at Ser5 (not fully specified (residue 5)); assay: as above
T8 construct: also called S5^TF
T8 peptide: HGVTSAPDTRPAPGSTAPP
Source text: as §1

[9] = target: T9, 100 aa-long synthetic MUC1 peptide (…)5; assay: ELISA titration on coated 100-mer peptide, EC50 approximated
T9 construct: also called 100-mer; vaccine 100-mer peptide
Source text: Heavy and light chains of antibodies reactive against MUC1 were generated from plasma of individuals vaccinated with a 100 aa-long synthetic MUC1 peptide (100-mer) representing the unglycosylated tumor associated MUC1 antigen (Kimura et al., 2013, Cancer Prev. Res. (Phila.), 6:18-26). Binding of monoclonal antibodies produced by combinatorial pairing of chains was characterized by ELISA using the vaccine 100-mer peptide consisting of the following sequence ([…])₅ (SEQ ID NO: 2). Briefly, 96-well high-binding ELISA plates were coated with 50 μl of the peptide diluted in carbonate buffer at 2 μg/ml. The wells were washed then blocked with 5% fat-free milk in phosphate-buffered saline (PBS). Antibodies were diluted in 5% milk in PBS with 0.1% TWEEN 20 (PBS-T) and then added to the peptide-coated, blocked wells and incubated at 37° C. for 2 hours, after which the wells were washed. Binding of antibody was probed with an anti-human IgG goat antibody conjugated to horseradish peroxidase (HRP), and signal was detected with 3,3′,5,5′-tetramethylbenzidine (TMB) substrate, which was neutralized with an acid, then the 450 nm absorbance was read. […] Additionally, the EC₅₀ of each antibody was approximated by ELISA titration (Table 1).

B1: M7 (antibody, human IgG1, kappa, V domains shown)
VH: EVQLVESGGGLVQPGGSLRLSCAASGFTVSSNYMSWVRQAPGKGLEWVSVIYSGGSTYYADSVKGRFTISRDNSKNTLYLQMNSLRAEDTAVYYCARGSTNTYYYDSSGHPWGQGTMVTVSS
VL: DIVMTQSPLSLPATPGEPASISCRSSQSLLHSNGYTYLDWYLQKPGQSPQVLIYLASNRASGVPDRFSGSGSGTNFTLKISRVEAEDVGLFYCMQALQTPQTFGQGTKLEIKR
notes: Human IgG
Q: Which “ELISA absorbance at 450 nm” value [1] does the source give for B1 here?
A: 0.1 absorbance

Q: What about the “ELISA absorbance at 450 nm” value [2] of the same binder?
A: 3.5 absorbance

Q: What about the “ELISA absorbance at 450 nm” value [3] of the same binder?
A: 0.1 absorbance

Q: And the “ELISA absorbance at 450 nm” value [4]?
A: 0.1 absorbance

Q: What about the “ELISA absorbance at 450 nm” value [5] of the same binder?
A: 0.1 absorbance

Q: What about the “ELISA absorbance at 450 nm” value [6] of the same binder?
A: 0.1 absorbance

Q: And the “ELISA absorbance at 450 nm” value [7]?
A: 0.1 absorbance

Q: And the “ELISA absorbance at 450 nm” value [8]?
A: 0.1 absorbance

Q: And the EC50 [9]?
A: 0.011 µg/mL
